In publication PMC4778124, “A continuous sirtuin activity assay without any coupling to enzymatic or chemical reactions” (Scientific Reports, 2016):
*: point of attachment. Myristoyl = CCCCCCCCCCCCCC(=O)*

Legend:
[1] = substrate: CCCCCCCCCCCCCC(=O)NCCCC[C@H](NC(=O)[C@H](CCCCN)NC(=O)[C@@H]1CCCN1C(=O)[C@H](CC(C)C)NC(=O)[C@H](C)NC(=O)[C@H](CCC(=O)O)NC(C)=O)C(=O)N[C@H](C(=O)NCC(=O)NCC(N)=O)[C@@H](C)O; assay: HPLC based activity assay; type: biochemical, human; settings: other: HPLC; Sirt3 0.1 µM; pH 7.8; 37.0 °C
Experimental: (§1) For the determination of kinetic constants for all sirtuin mediated reactions solutions containing 20 mM TRIS/HCl pH 7.8, 150 mM NaCl, 5 mM MgCl2 (assay-buffer), 500 μM NAD^+ and varying substrate concentrations (0.5–100 μM) were used. Deacylation was started by adding human sirtuin to reach a final concentration of 0.01–0.5 μM. Enzyme-catalyzed reaction was stopped using TFA (1% final concentration) after 1 min to 180 min of incubation at 37 °C depending on substrate reactivity. The cleavage rate of the different TNFα peptide derivatives was analyzed using analytical reversed phase HPLC. 40 to 80 μl of compounds or reaction solutions were injected and separated using a linear gradient from 5% to 95% solvent B within 6min. The product and substrate peaks were quantified using absorbance at 220 nm or 365 nm (absorption of 3-Nitrotyrosyl moiety). The peak areas were integrated and converted to initial velocity rates calculated from the ratio of product area to total peak area. Linear regression of conversions plotted against time yielded reaction rates in μM/min (relative conversion below 20% of substrate). Non-linear regression according to Michaelis-Menten of the reaction rates at different substrate concentrations yielded KM- and kcat-values using the program SigmaPlot 8 (Systat Software, San Jose, USA). All measurements were done in duplicates.
The reactions were performed with 0.1- 0.5 µM sirtuin, 500 µM NAD^+ and 50µM 13/16. All reactions were done in duplicates (n=2).

[2] = substrate: CC(=O)N[C@@H](CCC(=O)O)C(=O)N[C@@H](C)C(=O)N[C@@H](CC(C)C)C(=O)N1CCC[C@H]1C(=O)N[C@@H](CCCCN)C(=O)N[C@@H](CCCCNC(=O)CCCCCCCCCCNC(=O)c1ccccc1N)C(=O)N[C@@H](Cc1ccc(O)c([N+](=O)[O-])c1)C(=O)NCC(=O)NCC(N)=O; assay: Continuous fluorescence assay, substrate kinetics; type: biochemical, human; settings: other: FS (fluorescence spectrometer); Sirt3 0.1 µM; 37.0 °C
Experimental: The fluorescence measurements were performed on a Hitachi F-4500 fluorescence spectrophotometer (Tokyo, Japan) at λEx = 310 nm and λEm = 405 nm (slitEx = 5 nm, slitEm = 2.5 nm, PMT = 700 V for 3, 4 and 5 as well as slitEx = 10 nm, slitEm = 10 nm, PMT = 950 V for 4a). Each reaction mixture contained assay-buffer, 0.5 mM NAD^+ and various peptide concentrations (0.1–100 μM) and was preincubated for 5 minutes at 37 °C. The reaction was started by adding human sirtuin (0.1–0.5 μM) and observed for 5–10 minutes. Product formation could be monitored by increase of relative fluorescence. This signal was converted into product concentration via calibration lines. The slope of the linear regression of product formation against time yielded the reaction velocity rates in μM/s. KM and kcat were obtained by non-linear regression according to Michaelis-Menten. All measurements were done in duplicates. For determination of reaction velocity rates in μM/s calibration lines were necessary. […] The reaction mixture was analyzed with HPLC, to control if the entire peptide substrate was turned to product. Additionally the mixture was diluted (0.1–25 μM) and measured with Hitachi F-4500 fluorescence spectrophotometer at the same conditions as described above.
The microtiter plate fluorescence measurements were performed on a Tecan Infinite M200 microplate reader (Maennedorf, Switzerland) at λEx = 320 nm and λEm = 408 nm (lag time 9 μs, integration time […], gain 160, 170 or 182). The reactions (total volume 100 μl) were measured in black low-binding 96-well microtiter plates (NUNC). […] The signals were converted into product concentration via calibration lines and the resulting data were evaluated as described above (single fluorescence measurement). […] The reaction mixture for the calibration lines was prepared as described for the single fluorescence measurements. […] The resulting plots were analyzed by a competitive inhibition and non-competitive inhibition model using the program Sigma Plot 8. […] The negative Ki value can be determined as intersection with the X-axis from these plots.

[3] = substrate: CC(=O)N[C@@H](CCC(=O)O)C(=O)N[C@@H](C)C(=O)N[C@@H](CC(C)C)C(=O)N1CCC[C@H]1C(=O)N[C@@H](CCCCN)C(=O)N[C@@H](CCCCNC(=O)CCCCCCCCCCNC(=O)c1ccccc1N)C(=O)N[C@@H](Cc1ccc(O)c([N+](=O)[O-])c1)C(=O)NCC(=O)NCC(N)=O; assay: purified protein, by the assay type; settings: other: Sirt1 500 nM; fluorescence spectrophotometer (footnote a); 37.0 °C
Experimental: The reactions (total volume 100 μl) were measured in black low-binding 96-well microtiter plates (NUNC). Assay-buffer, 500 μM NAD^+ and 0.07–200 μM peptide substrate were pre-incubated at 37 °C for 5 min. The reaction was started by adding human sirtuin (0.01–0.5 μM). The signals were converted into product concentration via calibration lines and the resulting data were evaluated as described above (single fluorescence measurement). […] The reaction mixture for the calibration lines was prepared as described for the single fluorescence measurements.

[4] = biological target: human sirtuin 6, His-tagged Sirt6 (1-355) (human) (UniProt Q8N6T7)
Sequence of human sirtuin 6, His-tagged Sirt6 (1-355) (human) (Q8N6T7 whole entry): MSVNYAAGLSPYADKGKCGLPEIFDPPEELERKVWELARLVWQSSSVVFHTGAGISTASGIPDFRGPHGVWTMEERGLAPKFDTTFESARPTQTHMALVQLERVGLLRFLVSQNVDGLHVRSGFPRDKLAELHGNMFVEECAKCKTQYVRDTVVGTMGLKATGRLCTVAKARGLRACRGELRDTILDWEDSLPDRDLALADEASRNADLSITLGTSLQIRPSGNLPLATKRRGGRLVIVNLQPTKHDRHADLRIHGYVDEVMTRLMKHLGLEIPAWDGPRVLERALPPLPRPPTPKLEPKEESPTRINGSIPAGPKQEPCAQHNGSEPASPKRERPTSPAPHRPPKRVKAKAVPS

[5] = substrate: CCCCCCCCCCCCCC(=O)NCCCC[C@H](NC(=O)[C@H](CCCCN)NC(=O)[C@@H]1CCCN1C(=O)[C@H](CC(C)C)NC(=O)[C@H](C)NC(=O)[C@H](CCC(=O)O)NC(C)=O)C(=O)N[C@H](C(=O)NCC(=O)NCC(N)=O)[C@@H](C)O; assay: HPLC based activity assay; type: biochemical, human; settings: other: HPLC; Sirt5 0.5 µM; pH 7.8; 37.0 °C
Experimental: as §1

B1: Sirt3 (Homo sapiens) (protein)
chain: MAFWGWRAAAALRLWGRVVERVEAGGGVGPFQACGCRLVLGGRDDVSAGLRGSHGARGEPLDPARPLQRPPRPEVPRAFRRQPRAAAPSFFFSSIKGGRRSISFSVGASSVVGSGGSSDKGKLSLQDVAELIRARACQRVVVMVGAGISTPSGIPDFRSPGSGLYSNLQQYDLPYPEAIFELPFFFHNPKPFFTLAKELYPGNYKPNVTHYFLRLLHDKGLLLRLYTQNIDGLERVSGIPASKLVEAHGTFASATCTVCQRPFPGEDIRADVMADRVPRCPVCTGVVKPDIVFFGEPLPQRFLLHVVDFPMADLLLILGTSLEVEPFASLTEAVRSSVPRLLINRDLVGPLAWHPRSRDVAQLGDVVHGVESLVELLGWTEEMRDLVQRETGKLDGPDK
notes: made in house
With B1 the Km [1] was 1.6 ± 0.4 µM, the kcat [1] was 4.7∙10^-2 ± 0.3∙10^-2 s^-1 and the kcat/Km [1] was 2.95∙10^4 M^-1s^-1. The Km [2] was 2.4 ± 0.2 µM, the kcat [2] was 1.2∙10^-2 ± 0.3∙10^-3 s^-1 and the kcat/Km [2] was 5.15∙10^3 M^-1s^-1.

B2: Sirt1 (Homo sapiens) (protein)
chain: MADEAALALQPGGSPSAAGADREAASSPAGEPLRKRPRRDGPGLERSPGEPGGAAPEREVPAAARGCPGAAAAALWREAEAEAAAAGGEQEAQATAAAGEGDNGPGLQGPSREPPLADNLYDEDDDDEGEEEEEAAAAAIGYRDNLLFGDEIITNGFHSCESDEEDRASHASSSDWTPRPRIGPYTFVQQHLMIGTDPRTILKDLLPETIPPPELDDMTLWQIVINILSEPPKRKKRKDINTIEDAVKLLQECKKIIVLTGAGVSVSCGIPDFRSRDGIYARLAVDFPDLPDPQAMFDIEYFRKDPRPFFKFAKEIYPGQFQPSLCHKFIALSDKEGKLLRNYTQNIDTLEQVAGIQRIIQCHGSFATASCLICKYKVDCEAVRGDIFNQVVPRCPRCPADEPLAIMKPEIVFFGENLPEQFHRAMKYDKDEVDLLIVIGSSLKVRPVALIPSSIPHEVPQILINREPLPHLHFDVELLGDCDVIINELCHRLGGEYAKLCCNPVKLSEITEKPPRTQKELAYLSELPPTPLHVSEDSSSPERTSPPDSSVIVTLLDQAAKSNDDLDVSESKGCMEEKPQEVQTSRNVESIAEQMENPDLKNVGSSTGEKNERTSVAGTVRKCWPNRVAKEQISRRLDGNQYLFLPPNRYIFHGAEVYSDSEDDVLSSSSCGSNSDSGTCQSPSLEEPMEDESEIEEFYNGLEDEPDVPERAGGAGFGTDGDDQEAINEAISVKQEVTDMNYPSNKS
Work on B2 yielded a Km [3] of 0.7 ± 0.08 µM.

B3: myristoylated TNFα-derived peptide 1a (peptide)
peptide: Ac-EALPKK(Myristoyl)TGG-NH2
SMILES: CCCCCCCCCCCCCC(=O)NCCCC[C@H](NC(=O)[C@H](CCCCN)NC(=O)[C@@H]1CCCN1C(=O)[C@H](CC(C)C)NC(=O)[C@H](C)NC(=O)[C@H](CCC(=O)O)NC(C)=O)C(=O)N[C@H](C(=O)NCC(=O)NCC(N)=O)[C@@H](C)O
B3 was tested, and the KM of Sirt6-mediated deacylation, HPLC-based activity assay [4] was 6 µM.

B4: Sirt5 (Homo sapiens) (protein)
chain: SSSMADFRKFFAKAKHIVIISGAGVSAESGVPTFRGAGGYWRKWQAQDLATPLAFAHNPSRVWEFYHYRREVMGSKEPNAGHRAIAECETRLGKQGRRVVVITQNIDELHRKAGTKNLLEIHGSLFKTRCTSCGVVAENYKSPICPALSGKGAPEPGTQDASIPVEKLPRCEEAGCGGLLRPHVVWFGENLDPAILEEVDRELAHCDLCLVVGTSSVVYPAAMFAPQVAARGVPVAEFNTETTPATNRFRFHFQGPCGTTLPEALACHENETVS
notes: made in house
For B4, the Km [5] was 16.5 ± 3.1 µM, the kcat [5] was 5.7∙10^-3 ± 0.3∙10^-3 s^-1 and the kcat/Km [5] was 3.48∙10^2 M^-1s^-1.
